B1: FOXJ1 (parent)
chain: SAIYKWITDNFCYFRHADPTWQNS
B2: ADD1 (parent)
chain: FASDGDSGTCSPLRHSFQKQQREK
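Further: lentivirally expressed fusions sorted by FACS into six bins by GFP to DsRed ratio, PSI derived from sequencing read proportions per bin multiplied by bin number.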

Variants of: B1
Experiment: protein stability index of a GFP-peptide fusion (GPS, HEK-293T) (PSI 1-6); higher = more stable
Conditions: c terminus: a fixed tail appended
With SAFYKWITDNFCYFRHADPTWQNS [I3F] the protein stability index was 1.87.
SAPYKWITDNFCYFRHADPTWQNS [I3P] gave a protein stability index of 2.06.
With SALYKWITDNFCYFRHADPTWQNS [I3L] the protein stability index was 2.36.
In the case of SADYKWITDNFCYFRHADPTWQNS [I3D], the protein stability index is reported as 2.83.
SACYKWITDNFCYFRHADPTWQNS [I3C] showed a protein stability index of 4.05.
SAIYKWITDNFCYFRHADPKWQNS [T20K] gave a protein stability index of 2.23.
Variant SAIYKWITDNFCYFRHADPTWQNP [S24P] has a protein stability index of 3.85.
Variant SAIYKWITDNFCYFRQADPTWQNS [H16Q] has a protein stability index of 3.32.
Variant SAIYVWITDNFCYFRHADPTWQNS [K5V] has a protein stability index of 3.36.
Work on SAIYKWIADNFCYFRHADPTWQNS [T8A] yielded a protein stability index of 3.42.
SAIYKWIHDNFCYFRHADPTWQNS [T8H] showed a protein stability index of 3.34.
SAIYKWITDNDCYFRHADPTWQNS [F11D] gave a protein stability index of 1.49.
Variant SAIYKWITDNKCYFRHADPTWQNS [F11K] has a protein stability index of 2.08.
Work on SHIYKWITDNFCYFRHADPTWQNS [A2H] yielded a protein stability index of 3.1.
In the case of SWIYKWITDNFCYFRHADPTWQNS [A2W], the protein stability index is reported as 2.53.
For SAIYKWITDNFCYFRHADKTWQNS [P19K], the protein stability index was 3.4.
Variant SAIYKWITDNFCYFRHADFTWQNS [P19F] has a protein stability index of 4.12.
Work on SAIYKWITDNFCYFRHADPTWQRS [N23R] yielded a protein stability index of 3.24.
In the case of SAIYKWITDNFCYFRHADPTWQDS [N23D], the protein stability index is reported as 3.65.
In the case of SAIYKWITDNFCYFRHADPTWQYS [N23Y], the protein stability index is reported as 3.52.
For SAIYKWITDNFCYFRHADPTWQLS [N23L], the protein stability index was 2.46.
With SAIYKEITDNFCYFRHADPTWQNS [W6E] the protein stability index was 2.27.
SAIYKWITDNFCWFRHADPTWQNS [Y13W] showed a protein stability index of 3.59.
SAIYKWITDNFCYFRHADPTWFNS [Q22F] showed a protein stability index of 3.37.
With PAIYKWITDNFCYFRHADPTWQNS [S1P] the protein stability index was 2.9.
SAIYKWFTDNFCYFRHADPTWQNS [I7F] gave a protein stability index of 2.87.
SAIYKWWTDNFCYFRHADPTWQNS [I7W] gave a protein stability index of 3.71.
SAITKWITDNFCYFRHADPTWQNS [Y4T] showed a protein stability index of 1.52.
For SAIYKWITDNFCYGRHADPTWQNS [F14G], the protein stability index was 2.33.
With SAIYKWITDNFCYPRHADPTWQNS [F14P] the protein stability index was 2.04.
In the case of SAIYKWITANFCYFRHADPTWQNS [D9A], the protein stability index is reported as 2.74.
With SAIYKWITQNFCYFRHADPTWQNS [D9Q] the protein stability index was 2.67.
SAIYKWITTNFCYFRHADPTWQNS [D9T] gave a protein stability index of 3.43.
SAIYKWITDDFCYFRHADPTWQNS [N10D] showed a protein stability index of 1.58.
Variant SAIYKWITDVFCYFRHADPTWQNS [N10V] has a protein stability index of 1.74.
Variant SAIYKWITDFFCYFRHADPTWQNS [N10F] has a protein stability index of 1.81.
In the case of SAIYKWITDNFCYFRHAHPTWQNS [D18H], the protein stability index is reported as 4.66.
In the case of SAIYKWITDNFCYFRHAAPTWQNS [D18A], the protein stability index is reported as 3.1.
SAIYKWITDNFCYFFHADPTWQNS [R15F] showed a protein stability index of 2.57.
For SAIYKWITDNFCYFNHADPTWQNS [R15N], the protein stability index was 3.46.

Variants of: B2
Experiment: as above
Conditions: c terminus: a fixed tail appended
FASDGDSGACSPLRHSFQKQQREK [T9A] gave a protein stability index of 4.16.
With FASDGDSGDCSPLRHSFQKQQREK [T9D] the protein stability index was 4.36.
FASDGDSGCCSPLRHSFQKQQREK [T9C] showed a protein stability index of 3.52.
FASDGDSHTCSPLRHSFQKQQREK [G8H] showed a protein stability index of 3.86.
Variant FASDGDSSTCSPLRHSFQKQQREK [G8S] has a protein stability index of 3.58.
FASDGDSMTCSPLRHSFQKQQREK [G8M] gave a protein stability index of 2.96.
For FASDGDSRTCSPLRHSFQKQQREK [G8R], the protein stability index was 3.98.
FASDGDSETCSPLRHSFQKQQREK [G8E] gave a protein stability index of 3.92.
For FASDGDSDTCSPLRHSFQKQQREK [G8D], the protein stability index was 4.29.
Variant FASDGDSATCSPLRHSFQKQQREK [G8A] has a protein stability index of 2.82.
Work on FASDGDSNTCSPLRHSFQKQQREK [G8N] yielded a protein stability index of 3.5.
FASDGDSKTCSPLRHSFQKQQREK [G8K] showed a protein stability index of 3.57.
FASDGDSTTCSPLRHSFQKQQREK [G8T] gave a protein stability index of 3.75.
In the case of FASDGDSLTCSPLRHSFQKQQREK [G8L], the protein stability index is reported as 3.2.
With FASDGDSITCSPLRHSFQKQQREK [G8I] the protein stability index was 3.15.
For FASDGDSVTCSPLRHSFQKQQREK [G8V], the protein stability index was 3.81.
Variant FASDGDSFTCSPLRHSFQKQQREK [G8F] has a protein stability index of 1.44.
FASDGDSCTCSPLRHSFQKQQREK [G8C] gave a protein stability index of 3.1.
With FASDGDSQTCSPLRHSFQKQQREK [G8Q] the protein stability index was 3.7.
With FASDGDSPTCSPLRHSFQKQQREK [G8P] the protein stability index was 4.47.
FASDGDSYTCSPLRHSFQKQQREK [G8Y] showed a protein stability index of 2.5.
Variant QASDGDSGTCSPLRHSFQKQQREK [F1Q] has a protein stability index of 4.57.
With YASDGDSGTCSPLRHSFQKQQREK [F1Y] the protein stability index was 4.07.
Work on HASDGDSGTCSPLRHSFQKQQREK [F1H] yielded a protein stability index of 5.18.
In the case of DASDGDSGTCSPLRHSFQKQQREK [F1D], the protein stability index is reported as 4.91.
Work on TASDGDSGTCSPLRHSFQKQQREK [F1T] yielded a protein stability index of 5.55.
Work on KASDGDSGTCSPLRHSFQKQQREK [F1K] yielded a protein stability index of 4.22.
For MASDGDSGTCSPLRHSFQKQQREK [F1M], the protein stability index was 5.2.
For EASDGDSGTCSPLRHSFQKQQREK [F1E], the protein stability index was 5.62.
With RASDGDSGTCSPLRHSFQKQQREK [F1R] the protein stability index was 5.07.
Work on CASDGDSGTCSPLRHSFQKQQREK [F1C] yielded a protein stability index of 4.17.
Variant WASDGDSGTCSPLRHSFQKQQREK [F1W] has a protein stability index of 5.13.
PASDGDSGTCSPLRHSFQKQQREK [F1P] gave a protein stability index of 5.76.
Variant GASDGDSGTCSPLRHSFQKQQREK [F1G] has a protein stability index of 4.99.
In the case of NASDGDSGTCSPLRHSFQKQQREK [F1N], the protein stability index is reported as 5.19.
IASDGDSGTCSPLRHSFQKQQREK [F1I] gave a protein stability index of 5.29.
SASDGDSGTCSPLRHSFQKQQREK [F1S] showed a protein stability index of 5.12.
FASDGDWGTCSPLRHSFQKQQREK [S7W] gave a protein stability index of 2.06.
For FASDGDGGTCSPLRHSFQKQQREK [S7G], the protein stability index was 3.46.
FASDGDNGTCSPLRHSFQKQQREK [S7N] gave a protein stability index of 4.14.
In the case of FASDGDAGTCSPLRHSFQKQQREK [S7A], the protein stability index is reported as 3.82.
Variant FASDGDVGTCSPLRHSFQKQQREK [S7V] has a protein stability index of 1.49.
Work on FASDGDCGTCSPLRHSFQKQQREK [S7C] yielded a protein stability index of 2.96.
FASDGDDGTCSPLRHSFQKQQREK [S7D] showed a protein stability index of 4.18.
Work on FASDGDYGTCSPLRHSFQKQQREK [S7Y] yielded a protein stability index of 3.04.
FASDGDTGTCSPLRHSFQKQQREK [S7T] gave a protein stability index of 3.19.
FASDGDFGTCSPLRHSFQKQQREK [S7F] gave a protein stability index of 2.72.
For FASDGDEGTCSPLRHSFQKQQREK [S7E], the protein stability index was 4.26.
FASDGDQGTCSPLRHSFQKQQREK [S7Q] showed a protein stability index of 3.76.
With FASDGDHGTCSPLRHSFQKQQREK [S7H] the protein stability index was 3.42.
In the case of FASDGDKGTCSPLRHSFQKQQREK [S7K], the protein stability index is reported as 3.69.
In the case of FASDGDLGTCSPLRHSFQKQQREK [S7L], the protein stability index is reported as 2.11.
Variant FASDGDIGTCSPLRHSFQKQQREK [S7I] has a protein stability index of 1.49.
For FASDGDMGTCSPLRHSFQKQQREK [S7M], the protein stability index was 3.14.

From the supplement of paper PMC10567573
